From the Human Domainome abundance scans (Beltran et al. 2025)
± gives the uncertainty stated by the source.

B1: Pyruvate dehydrogenase protein X component, mitochondrial, residues 181 to 227; numbered along this chain, O00330 (parent)
chain: RFRLSPAARNILEKHSLDASQGTATGPRGIFTKEDALKLVQLKQTGK

Variants of: B1
Assay: abundance fitness (aPCA) (normalised: wild type 0, dead -1); higher = more abundant; growth selection in yeast, the domain comes from the species named
Conditions: Homo sapiens

Variant | abundance fitness
RFRLSPAARNILEHHSLDASQGTATGPRGIFTKEDALKLVQLKQTGK [K14H] | -0.164 ± 0.079
RFRLSPAARNILEIHSLDASQGTATGPRGIFTKEDALKLVQLKQTGK [K14I] | -0.165 ± 0.09
RFRLSPAARNILEMHSLDASQGTATGPRGIFTKEDALKLVQLKQTGK [K14M] | -0.149 ± 0.094
RFRLSPAARNILENHSLDASQGTATGPRGIFTKEDALKLVQLKQTGK [K14N] | -0.05 ± 0.073
RFRLSPAARNILEPHSLDASQGTATGPRGIFTKEDALKLVQLKQTGK [K14P] | -0.055 ± 0.081
RFRLSPAARNILEQHSLDASQGTATGPRGIFTKEDALKLVQLKQTGK [K14Q] | 0 ± 0.075
RFRLSPAARNILERHSLDASQGTATGPRGIFTKEDALKLVQLKQTGK [K14R] | -0.293 ± 0.053
RFRLSPAARNILESHSLDASQGTATGPRGIFTKEDALKLVQLKQTGK [K14S] | -0.279 ± 0.054
RFRLSPAARNILETHSLDASQGTATGPRGIFTKEDALKLVQLKQTGK [K14T] | 0.049 ± 0.05
RFRLSPAARNILEWHSLDASQGTATGPRGIFTKEDALKLVQLKQTGK [K14W] | -0.474 ± 0.064
RFRLSPAARNILEYHSLDASQGTATGPRGIFTKEDALKLVQLKQTGK [K14Y] | -0.3 ± 0.1
RFRLSPAARNILEKASLDASQGTATGPRGIFTKEDALKLVQLKQTGK [H15A] | -0.276 ± 0.069
RFRLSPAARNILEKDSLDASQGTATGPRGIFTKEDALKLVQLKQTGK [H15D] | -0.283 ± 0.06
RFRLSPAARNILEKESLDASQGTATGPRGIFTKEDALKLVQLKQTGK [H15E] | -0.138 ± 0.064
RFRLSPAARNILEKFSLDASQGTATGPRGIFTKEDALKLVQLKQTGK [H15F] | -0.294 ± 0.077
RFRLSPAARNILEKGSLDASQGTATGPRGIFTKEDALKLVQLKQTGK [H15G] | -0.255 ± 0.052
RFRLSPAARNILEKISLDASQGTATGPRGIFTKEDALKLVQLKQTGK [H15I] | -0.906 ± 0.16
RFRLSPAARNILEKKSLDASQGTATGPRGIFTKEDALKLVQLKQTGK [H15K] | -0.42 ± 0.085
RFRLSPAARNILEKLSLDASQGTATGPRGIFTKEDALKLVQLKQTGK [H15L] | -0.813 ± 0.078
RFRLSPAARNILEKMSLDASQGTATGPRGIFTKEDALKLVQLKQTGK [H15M] | -0.1 ± 0.082
RFRLSPAARNILEKNSLDASQGTATGPRGIFTKEDALKLVQLKQTGK [H15N] | 0.019 ± 0.078
RFRLSPAARNILEKPSLDASQGTATGPRGIFTKEDALKLVQLKQTGK [H15P] | -0.575 ± 0.072
RFRLSPAARNILEKQSLDASQGTATGPRGIFTKEDALKLVQLKQTGK [H15Q] | -0.341 ± 0.05
RFRLSPAARNILEKRSLDASQGTATGPRGIFTKEDALKLVQLKQTGK [H15R] | -0.985 ± 0.077
RFRLSPAARNILEKSSLDASQGTATGPRGIFTKEDALKLVQLKQTGK [H15S] | -0.517 ± 0.075
RFRLSPAARNILEKTSLDASQGTATGPRGIFTKEDALKLVQLKQTGK [H15T] | -0.361 ± 0.075
RFRLSPAARNILEKVSLDASQGTATGPRGIFTKEDALKLVQLKQTGK [H15V] | -0.506 ± 0.053
RFRLSPAARNILEKWSLDASQGTATGPRGIFTKEDALKLVQLKQTGK [H15W] | -0.191 ± 0.082

Variant | abundance fitness
RFRLSPAARNILEKYSLDASQGTATGPRGIFTKEDALKLVQLKQTGK [H15Y] | -0.176 ± 0.09
RFRLSPAARNILEKHALDASQGTATGPRGIFTKEDALKLVQLKQTGK [S16A] | -0.186 ± 0.063
RFRLSPAARNILEKHCLDASQGTATGPRGIFTKEDALKLVQLKQTGK [S16C] | -0.215 ± 0.08
RFRLSPAARNILEKHDLDASQGTATGPRGIFTKEDALKLVQLKQTGK [S16D] | 0.078 ± 0.065
RFRLSPAARNILEKHELDASQGTATGPRGIFTKEDALKLVQLKQTGK [S16E] | 0.035 ± 0.051
RFRLSPAARNILEKHFLDASQGTATGPRGIFTKEDALKLVQLKQTGK [S16F] | -0.416 ± 0.084
RFRLSPAARNILEKHGLDASQGTATGPRGIFTKEDALKLVQLKQTGK [S16G] | 0.244 ± 0.043
RFRLSPAARNILEKHHLDASQGTATGPRGIFTKEDALKLVQLKQTGK [S16H] | -0.026 ± 0.079
RFRLSPAARNILEKHILDASQGTATGPRGIFTKEDALKLVQLKQTGK [S16I] | -0.894 ± 0.091
RFRLSPAARNILEKHKLDASQGTATGPRGIFTKEDALKLVQLKQTGK [S16K] | 0.061 ± 0.07
RFRLSPAARNILEKHLLDASQGTATGPRGIFTKEDALKLVQLKQTGK [S16L] | -0.667 ± 0.047
RFRLSPAARNILEKHMLDASQGTATGPRGIFTKEDALKLVQLKQTGK [S16M] | -0.708 ± 0.089
RFRLSPAARNILEKHNLDASQGTATGPRGIFTKEDALKLVQLKQTGK [S16N] | 0.018 ± 0.087
RFRLSPAARNILEKHPLDASQGTATGPRGIFTKEDALKLVQLKQTGK [S16P] | -0.281 ± 0.057
RFRLSPAARNILEKHQLDASQGTATGPRGIFTKEDALKLVQLKQTGK [S16Q] | 0.069 ± 0.085
RFRLSPAARNILEKHTLDASQGTATGPRGIFTKEDALKLVQLKQTGK [S16T] | -0.109 ± 0.05
RFRLSPAARNILEKHVLDASQGTATGPRGIFTKEDALKLVQLKQTGK [S16V] | -0.613 ± 0.049
RFRLSPAARNILEKHWLDASQGTATGPRGIFTKEDALKLVQLKQTGK [S16W] | -0.699 ± 0.051
RFRLSPAARNILEKHYLDASQGTATGPRGIFTKEDALKLVQLKQTGK [S16Y] | -0.385 ± 0.066
RFRLSPAARNILEKHSADASQGTATGPRGIFTKEDALKLVQLKQTGK [L17A] | -0.506 ± 0.056
RFRLSPAARNILEKHSCDASQGTATGPRGIFTKEDALKLVQLKQTGK [L17C] | -0.244 ± 0.11
RFRLSPAARNILEKHSDDASQGTATGPRGIFTKEDALKLVQLKQTGK [L17D] | -0.534 ± 0.14
RFRLSPAARNILEKHSEDASQGTATGPRGIFTKEDALKLVQLKQTGK [L17E] | -0.33 ± 0.068
RFRLSPAARNILEKHSFDASQGTATGPRGIFTKEDALKLVQLKQTGK [L17F] | -0.635 ± 0.085
RFRLSPAARNILEKHSGDASQGTATGPRGIFTKEDALKLVQLKQTGK [L17G] | -0.575 ± 0.05
RFRLSPAARNILEKHSHDASQGTATGPRGIFTKEDALKLVQLKQTGK [L17H] | -0.308 ± 0.12
RFRLSPAARNILEKHSIDASQGTATGPRGIFTKEDALKLVQLKQTGK [L17I] | -0.22 ± 0.15
